# Results from patent US20250163149A1, “ANTI-RAGE ANTIBODY” (Swansea University, priority 2022, published 2025).
# T1: synthetic peptide S155 of the RAGE V-domain (amino acids 39-65) (human)
# T1 construct: injected as analyte in SPR; also called RAGE synthetic peptide
# T1 peptide: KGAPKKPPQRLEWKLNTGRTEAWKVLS
# What was measured:
# [1] = molecular target: synthetic peptide S155 of the RAGE V-domain (amino acids 39-65) (human); test: SPR, antibody amine-coupled to a CM5 chip as ligand, peptide S155 (B-Rad) as analyte at 0.25-4 µM, 1:1 binding fit
# [2] = molecular target: Human rRAGE, full-length RAGE recombinant protein from Merck (human) (UniProt Q15109); test: SPR, antibody amine-coupled to a CM5 chip as ligand, rRAGE protein as analyte at 0.0156-0.35 µM, 1:1 binding fit
# [3] = molecular target: synthetic peptide S155 of the RAGE V-domain (amino acids 39-65) (human); test: SPR (Biacore T200), antibody amine-coupled to a CM5 chip as ligand, RAGE peptide S155 (BioRad) as analyte, multi-cycle kinetics, 1:1 fit; 'No steady state.'
# [4] = molecular target: T1, synthetic peptide S155 of the RAGE …; test: ELISA, BSA-conjugated peptide S155 on the plate, two-fold dilutions of antibody, HRP anti-mouse, OD 450 nm
# Procedure: FIG. 2: Screening of purified anti-RAGE antibodies by enzyme linked immunosorbent assay (ELISA). BSA-conjugated synthetic peptides of RAGE protein were immobilized onto microplates and incubated with two-fold serial dilutions of antibodies.
# A 96-well plate was coated with 5 μg/ml of RAGE synthetic peptides or RAGE recombinant protein diluted in phosphate-buffered saline (pH 7.4) overnight at 4° C. The solution was removed, washed with PBS-Tween (PBST) and the plate was blocked with ELISA ultrablock buffer (Biorad) for 1 h at room temperature. After blocking, the plate was washed with PBST and a range of concentrations of α-RAGE antibodies was applied to the plate for 2 h at room temperature. The plate was washed thoroughly with PBST and incubated with HRP-conjugated anti-mouse antibodies diluted 1:1000 in PBS-Tween. After washes with PBST, TMB Core+ substrate solution (Biorad) was added to each well and incubated at room temperature for 30 minutes. 0.2M H2SO4 was used as a stop solution. Absorbance at 450 nm was measured in a Biorad absorbance microplate reader.
# The initial screening of the 6 murine antibody clones against RAGE was undertaken by ELISA. For this evaluation a range of 15 concentrations of each antibody clone was applied to the plate.
# [5] = molecular target: T1, synthetic peptide S155 of the RAGE …; test: SPR (Biacore T200), antibody amine-coupled to a CM5 chip as ligand, RAGE peptide S155 (BioRad) as analyte, multi-cycle kinetics, 1:1 fit; 'No steady state.'
# Procedure: This was followed by diluting the ligand with the appropriate Acetate buffer to at least 10 μg/mL. The ligand immobilization on the surface Series S Sensor Chip CM5 (29-1496-03, Cytiva) was performed using the Amine Coupling Kit (BR100050, Cytiva) containing 1-Etyhyl-3-(3-dimethylaminopropyl)-carbodiimide hydrochloride (EDC), N-Hydroxysuccinimide (NHS) and 1.0M ethanolamine-HcL PH 8.5 in accordance with the manufacturer's instructions. For each experimental run, the ligand was immobilized in flow cells 2 or 4 while flow cells 1 or 3 were left unmodified. […] Following each binding cycle, the surface was regenerated with a 30 s injection of 10 mM Glycine-HcL, pH 2.5 regeneration solution (BR-1003-56), removing the bound antibody with a contact time of 30 s, flow rate of 30 μL/min and a stabilization period of Os. Blank cycles (buffer only injection followed by regeneration step) was also performed. Data was double referenced by first subtracting responses from the reference flow cell and then subtracting the blank cycles. Data was then fitted to a 1:1 binding model using Biacore™ T200 Evaluation Software 2.0 and Biacore™ Insight Evaluation Software.
# SPR analysis was subsequently used to evaluate the binding kinetics of the different murine clones to their targets (either using synthetic peptide used to produce the clones or recombinant RAGE protein (Uniprot reference: Q15109-1) Peptide S155=Original peptide from Biorad used to produce the murine clones. Human rRAGE=Full-length RAGE recombinant protein from Merck). The SPR parameters used for this analysis are described in the detailed methods.
# [6] = molecular target: T1, synthetic peptide S155 of the RAGE …; test: SPR (Biacore T200), antibody amine-coupled to a CM5 chip as ligand, RAGE Peptide (S155) as analyte, multi-cycle kinetics, 1:1 fit
# Procedure: (§1) Data were then fitted to a 1:1 binding model.
# (§2) For on-rate and off-rate screening, Biacore™ T200 system (Cytiva, Uppsala, Sweden) was used to perform SPR analysis with 1×HBS-EP+ buffer (0.01M Hepes, 0.15M NaCl, 0.003M ethylenediaminetetraacetic acid, and 0.05% Surfactant P20, pH 7.4) (BR100669) used as sample and running buffer. The analysis temperature at the sensor chip surface and within the compartment was set to 25° C. Firstly, pH scouting with 10 mM sodium acetate buffer 4.0 (BR-1003-49), 10 mM sodium acetate buffer 4.5 (BR-1003-50), 10 mM sodium acetate buffer 5.0 (BR-1003-51) and 10 mM sodium acetate buffer 5.5 (BR-1003-52) was performed to identify the optimal pH required for ligand (α-RAGE antibodies) immobilization. This was followed by diluting the ligand with the appropriate Acetate buffer to at least 10 μg/mL. The ligand immobilization on the surface Series S Sensor Chip CM5 (29-1496-03, Cytiva) was performed using the Amine Coupling Kit (BR100050, Cytiva) containing 1-Etyhyl-3-(3-dimethylaminopropyl)-carbodiimide hydrochloride (EDC), N-Hydroxysuccinimide (NHS) and 1.0M ethanolamine-HcL PH 8.5 in accordance with the manufacturer's instructions. For each experimental run, the ligand was immobilized in flow cells 2 or 4 while flow cells 1 or 3 were left unmodified.
# [7] = molecular target: T1, synthetic peptide S155 of the RAGE …; test: SPR (Biacore T200), antibody amine-coupled to a CM5 chip as ligand, RAGE Peptide (S155) as analyte, multi-cycle kinetics, 1:1 fit; 'No steady state.'
# Procedure: as §1, §2
# [8] = molecular target: RAGE (Homo sapiens, UniProt Q15109); test: Binding target blocking assay by immunofluorescence on HEC-1A cells; type: cell-based; design: endogenous in cells; host or cells: HEC-1A (ECACC); details: then antibody at 4 μg/ml
# Procedure: To proof that HA9 shares similar binding epitope as other α-RAGE antibodies, an immunofluorescence approach was used. For this purpose, 1.5×10^4 HEC1A cells/well (obtained from the European Collection of Authenticated Cell Cultures, ECACC, Public Health England, UK) were seeded in 8-well chamber slides (Ibidi) in 300 μl of stripped medium and cultured for 24 h in a humidified, 5% CO2 in air atmosphere incubator at 37° C. After culture, cells were fixed with 4% paraformaldehyde (Sigma) for 20 minutes, permeabilized with 0.1% Triton X-100 (Sigma) for 10 minutes at 4° C. and blocked with 3% BSA in PBS for 1 h. Cells were then pre-incubated with a primary antibody against RAGE at a concentration in excess (20 μg/ml in 3% BSA in PBS for 1 h) to block the specific epitope they bind, before cells were incubated with the α-RAGE antibody of interest at 4 μg/ml in 3% BSA-PBS overnight at 4° C. This was followed by 1 h incubation with Alexa-fluorophore-conjugated secondary antibodies. Cells were washed with PBS extensively between all steps, counterstained before imaging with Hoechst (Life Technologies™) and imaged using a LSM710 confocal fluorescence microscopy system (Zeiss, UK). The mean intensity of fluorescence was obtained using imageJ by measuring the integrated density per imaged field, normalised by the number of cells in the respective field and obtaining the mean from >10 fields obtained per condition. A decrease in fluorescence in the pre-blocked condition compared with the not-pre-blocked condition means both antibodies share similar epitope of binding on the same protein.
# Sequence of Human rRAGE, full-length RAGE recombinant protein from Merck (human) (Q15109 23-404 limits assumed): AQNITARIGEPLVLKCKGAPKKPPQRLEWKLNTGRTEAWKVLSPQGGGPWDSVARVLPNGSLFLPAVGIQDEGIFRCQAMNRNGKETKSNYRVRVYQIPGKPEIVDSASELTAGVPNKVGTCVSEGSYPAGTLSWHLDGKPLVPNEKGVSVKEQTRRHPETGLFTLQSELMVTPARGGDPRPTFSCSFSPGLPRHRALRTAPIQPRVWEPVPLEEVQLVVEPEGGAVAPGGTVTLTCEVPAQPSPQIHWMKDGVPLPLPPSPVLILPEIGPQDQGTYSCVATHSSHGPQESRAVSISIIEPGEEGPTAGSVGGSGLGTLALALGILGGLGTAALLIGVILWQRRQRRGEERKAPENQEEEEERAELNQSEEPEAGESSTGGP
# Sequence of RAGE (Q15109 23-404): as the sequence (Q15109 23-404 limits assumed) above
molecule,measurement,setting,value
"α-RAGE Abcam (Abcam, ab37647) (antibody)",Kd,[1],54.1 nM
same,koff,[1],4.46 s⁻¹
same,kon,[1],8.2e+07 M⁻¹ s⁻¹
same,Kd,[2],4.31 nM
same,koff,[2],0.00077 s⁻¹
same,kon,[2],180000 M⁻¹ s⁻¹
"murine BC3 anti-RAGE monoclonal antibody (antibody, part only; not given: Light chain variable region, V domains shown, part only) VH: QVQLKQSGPGLVQPSQSLSITCTVSGFSLTNYGVHWVRQSPGKGLEWLGVIWTGGNTDYNAAFISRLSITKDNSKSQVFFKMNSLQANDTAIYYCARNLRGGYYGAWFAYWGQGTLVTVSA",Kd,[3],890 nM
same,koff,[3],0.00333 s⁻¹
same,kon,[3],3720 M⁻¹ s⁻¹
"murine HA9 (mHA9) anti-RAGE monoclonal antibody (antibody, V domains shown, Murine hybridoma antibody, purified on protein G; also called HA9 clone) VH: EVKLVETGGGLVQPGRPMKLSCVASGFTLSDHWMNWVRQSPEKGLEWVAQIRNRPYKFEKYYSDSVKGRFTISRDDSKNSVYLQMNNLRAEDMGIYYCSSYRYGLAYWGQGTLVTVST VL: DNLLTQSPAILSVSPGERVSFSCRASQTIDTRIHWYQQRKNGSPRLLIRYISESLSGIPSRFSGSGSGTEFTLTINSVESEDIADYYCQQTESWPITFGSGTKLEIK",EC50 (read off the curve),[4],~0.01 µg/mL
same,Kd,[5],720 nM
same,koff,[5],0.0033 s⁻¹
"murine BG7 anti-RAGE monoclonal antibody (antibody, V domains shown, Murine hybridoma antibody) VH: EVKLDETGGGLVQPGRPMKLSCIASGFTLSDYWMNWVRQSPEKGLEWVAQIRNRPYNFETLYSDSVKGRFIISRDDSKNSVYLQMDNLGPDDSGIYYCSSYRYGLAYWGQGTLVTVSA VL: DILLTQSPAILSVSPGERVSISCRASQTIDKRIHWYQQRTNGSPRLLIKYMSESISGTPSRFSGSGSGTDFTLTINSVESEDIAVYYCQQTNYWPITFGSGTKLELK",EC50 (read off the curve),[4],~0.02 µg/mL
same,Kd,[5],410 nM
same,koff,[5],0.02 s⁻¹
same,kon,[5],49000 M⁻¹ s⁻¹
"murine CG7 (mCG7) anti-RAGE monoclonal antibody (antibody, V domains shown, Murine hybridoma antibody) VH: QVQLKQSGPGLVQPSQSLSITCTVSGFSLTNYGVHWVRQSPGKGLEWLGVIWTGGNTDYNAAFISRLSITKDNSKSQVFFKMNSLQANDTAIYYCARNLRGGYYGAWFAYWGQGTLVTVSA VL: DVVMTQTPLSLPVSLGDQASISCRSSQTLVHSNGNTYLHWYLQKPGQSPKLLIYKVSNRFSGVPDRFTGSGSGTDFTLKISRVEAEDLGVYFCSQSTHVPPLTFGAGTKLELK",Kd,[5],296 nM
same,koff,[5],0.00901 s⁻¹
same,kon,[5],30000 M⁻¹ s⁻¹
"murine IG7 anti-RAGE monoclonal antibody (antibody, V domains shown, Same VH and VL as BG7; also called ID7) VH: EVKLDETGGGLVQPGRPMKLSCIASGFTLSDYWMNWVRQSPEKGLEWVAQIRNRPYNFETLYSDSVKGRFIISRDDSKNSVYLQMDNLGPDDSGIYYCSSYRYGLAYWGQGTLVTVSA VL: DILLTQSPAILSVSPGERVSISCRASQTIDKRIHWYQQRTNGSPRLLIKYMSESISGTPSRFSGSGSGTDFTLTINSVESEDIAVYYCQQTNYWPITFGSGTKLELK",EC50 (read off the curve),[4],~0.02 µg/mL
same,Kd,[5],860 nM
same,koff,[5],0.00326 s⁻¹
same,kon,[5],3790 M⁻¹ s⁻¹
"chimeric HA9 (hHA9) anti-RAGE antibody (antibody, V domains shown, Chimeric ('chimeric humanised format') version of HA9 made in HEK293 by Absolute Antibody) VH: EVKLVETGGGLVQPGRPMKLSCVASGFTLSDHWMNWVRQSPEKGLEWVAQIRNRPYKFEKYYSDSVKGRFTISRDDSKNSVYLQMNNLRAEDMGIYYCSSYRYGLAYWGQGTLVTVST VL: DNLLTQSPAILSVSPGERVSFSCRASQTIDTRIHWYQQRKNGSPRLLIRYISESLSGIPSRFSGSGSGTEFTLTINSVESEDIADYYCQQTESWPITFGSGTKLEIK",Kd,[6],203 nM
same,koff,[6],0.0032 s⁻¹
"Anti-BG7 (Chimeric) (antibody, V domains shown, also called hBG7; chimeric BG7) VH: EVKLDETGGGLVQPGRPMKLSCIASGFTLSDYWMNWVRQSPEKGLEWVAQIRNRPYNFETLYSDSVKGRFIISRDDSKNSVYLQMDNLGPDDSGIYYCSSYRYGLAYWGQGTLVTVSA VL: DILLTQSPAILSVSPGERVSISCRASQTIDKRIHWYQQRTNGSPRLLIKYMSESISGTPSRFSGSGSGTDFTLTINSVESEDIAVYYCQQTNYWPITFGSGTKLELK",Kd,[7],607 nM
same,koff,[7],0.0028 s⁻¹
"Anti-CG7 (Chimeric) (antibody, V domains shown, also called hCG7; chimeric CG7) VH: QVQLKQSGPGLVQPSQSLSITCTVSGFSLTNYGVHWVRQSPGKGLEWLGVIWTGGNTDYNAAFISRLSITKDNSKSQVFFKMNSLQANDTAIYYCARNLRGGYYGAWFAYWGQGTLVTVSA VL: DVVMTQTPLSLPVSLGDQASISCRSSQTLVHSNGNTYLHWYLQKPGQSPKLLIYKVSNRFSGVPDRFTGSGSGTDFTLKISRVEAEDLGVYFCSQSTHVPPLTFGAGTKLELK",Kd,[7],320 nM
same,koff,[7],0.0095 s⁻¹
"CG7: anti-RAGE antibody clone raised against RAGE peptide aa 39-65 (antibody, V domains shown) VH: QVQLKQSGPGLVQPSQSLSITCTVSGFSLTNYGVHWVRQSPGKGLEWLGVIWTGGNTDYNAAFISRLSITKDNSKSQVFFKMNSLQANDTAIYYCARNLRGGYYGAWFAYWGQGTLVTVSA VL: DVVMTQTPLSLPVSLGDQASISCRSSQTLVHSNGNTYLHWYLQKPGQSPKLLIYKVSNRFSGVPDRFTGSGSGTDFTLKISRVEAEDLGVYFCSQSTHVPPLTFGAGTKLELK",staining after Abcam antibody pre-blocking,[8]; Abcam antibody 20 μg/ml pre-incubation,did not result in a decrease
same,staining after N16 pre-blocking,[8]; N16 20 μg/ml pre-incubation,unaffected
